Data from the nanobody polyreactivity screen of Harvey et al. (2022).

Assay: yeast display, Sf9 membrane polyspecificity reagent, FACS + sequencing; frameworks hold sequencing errors
Outline: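 A synthetic nanobody library was expressed on Saccharomyces cerevisiae BJ5465 by galactose induction for 36–48 hours. The library was stained for 1 hour at 4 °C with 10% biotinylated, detergent-solubilized Sf9 membrane reagent and enriched with streptavidin microbeads before FACS. Low and high (top ~1%) gates were set on anti-HA fluorescence for expression and streptavidin fluorescence for reagent binding, and each polyreactivity label reflects the gate of origin.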

Sequence	polyreactivity (PSR sort gate)
QVQLVESGGGLVQAGGSLRLSCAASGGTFATYAMGWYRQAPGKERELVATIRSGGSTYYADSVKGRFTISRDNAKNTVYLQMNSLKPEDTAVYYCNARAYHKGFYRITYYYWGQGTQVTVSS	high polyreactivity
QVQLVESGGGLVQAGGSLRLSCAASGGTFDVYTMGWYRQAPGKERELVAAIDNGGSTNYADSVKGRFTISRDNAKHTVYLQMNSLKPEDTAVYYCAADEVYLFWGIAEFIYDYWGQGTQVTVSS	low polyreactivity
QVQLVESGGGLVQAGGSLRLSCAASGGTFEVNAMGWYRQAPGKERELVAAIDTSDGSTYYADSVKGRFTISRDNAKNTVYLQMNSLKPEDTAVYYCAAERLFRFWYSAYERYDYWGQGTQVTVSS	low polyreactivity
QVQLVESGGGLVQAGGSLRLSCAASGGTFFVYMGRYRQAPGKERELVAAITGGGGTYYADSVKGRFTISRDNAKNTVYLQMNSLKPEDTAVYYCATRGATSTVPEGDSWGQGTHVTVSS	low polyreactivity
QVQLVESGGGLVQAGGSLRLSCAASGGTFGAYAMGWYRQAPGKERELVAAINVGGGSTYYADSVKGRFTISRDNAKNTVYLQMNSLKPEDTAVYYCAKDLYDGYWRGDYWGQGTQVTVSS	low polyreactivity
QVQLVESGGGLVQAGGSLRLSCAASGGTFGLDAMGWYRQARGKERELVARISWSSGSTYYADSVKGRFTISRDNAKNTVYLQMNSLKPEDTAVYYCATDTYGAHAFFEFDYWGQGTQVTVSS	low polyreactivity
QVQLVESGGGLVQAGGSLRLSCAASGGTFGNNDMGWYRQAPGKERELVAAIRSAGTTYYADSVKGRFTISRDNAKNTVYLQMNSLKPEDTAVYYWNADTTGYWSFGFQYYGEDYWGQGTQVTVSS	low polyreactivity
QVQLVESGGGLVQAGGSLRLSCAASGGTFGSNAMGWYRQAPGKERELLAAITSRGGSTSYADSVKGRFTISRDYAKNTVYLQMKSLKPEDTAVYYCASVRYYWRPYVVNFDYWGQGTQVTVSS	high polyreactivity
QVQLVESGGGLVQAGGSLRLSCAASGGTFGSNTMGWYRQAPGKERELVAAITSGVSTNYADSVKGRFTISRDNAKNTVYLQMISLKPEDTAVYYCAKDLWSEEYETIITSYGFDYWGQGTQVTLSS	low polyreactivity
QVQLVESGGGLVQAGGSLRLSCAASGGTFGSYAMGWSRPAPGKERELVAAIDYSGADTYYADSVKGRFTISRDNAKNTVYLQMNSLKPEDTAVYYCNAEFESGHDLDWYDYWGQGTQVTVSS	low polyreactivity
QVQLVESGGGLVQAGGSLRLSCAASGGTFGTYAMGWYRQAPGKERELVAAITRSGGSTYADSVKGRFTISRDNAKNTVYLQMNSMKPEDTAVYYCNTRTTWRRYVVNGYDYWGQGTQVTVSS	low polyreactivity
QVQLVESGGGLVQAGGSLRLSCAASGGTFGVNAMGWYRQAPGKDRELVAAISSSGGRTYYADSVKGRFTISRDNAKNTVYLQMNSLKPEDTAVYYCAARNYFWGQGTQVTVSS	low polyreactivity
QVQLVESGGGLVQAGGSLRLSCAASGGTFGYNTLGWYRQAPGKERELVAAITGSGGRTYYADSVKGRFTISRDNAKNTVYLQMNSLKPEDTAVYYCNALTYPDYGYWGQGTQVTVSS	low polyreactivity
QVQLVESGGGLVQAGGSLRLSCAASGGTFIVYAMGWYRQAPGKERELVAAITYSGGSTYYADSVKGRFTISRDNAKNTVYLQMNSLKPEVTAVYYCAARPFVSSWLQYAEGGDYWGQGTQVTVSS	low polyreactivity
QVQLVESGGGLVQAGGSLRLSCAASGGTFKPNVMGWYRQAPGKERELVAAITSGGSTYYADSVKGRFTMSRDNAKNTVYLQMNSLKPEDTAVYYCAATSLRRYGYNYWGQGTQVTVSS	high polyreactivity
QVQLVESGGGLVQAGGSLRLSCAASGGTFLAYAMGWSRQAPGKEREFVAGISNDGDTNYADSVKGRFTISRDNAKNTVYLQMNSLKPEDTAVYYCAALYRGYAVAASYYHWGQGTQVTVSS	high polyreactivity
QVQLVESGGGLVQAGGSLRLSCAASGGTFNHYAMGWYRQAPGKERELVASITNGASTYYADSVKGRFTISRDNAKNTVYLQMNSLKPEDTAVYYCAKRGRVGKYRYEYWGQGTQVTVSS	low polyreactivity
QVQLVESGGGLVQAGGSLRLSCAASGGTFPLYAMGWYRQAPGKERELVAAIRWSGGRTYYADSVKGRFTISRDNAKNTVYLQMNSLKPEDTAVYYCAADYDDGWGYDYWGQGTQVTVSS	high polyreactivity
QVQLVESGGGLVQAGGSLRLSCAASGGTFPQNLMGWYRQAPGQERELVAAISSGGSTYYADSGKGRFTISRDNAKNSVYLQMNSLKPEDTAVYYCAKRRWYRYDYWGQGTQVTVSS	high polyreactivity
QVQLVESGGGLVQAGGSLRLSCAASGGTFPWYTKGWYRQAPGKERELVATIRGRDGSTFYADSVKGRFTISRDNAKNTVYLQMNSLKPEDTAVYYCAAVGRRKDLRWGVYYRFDYWGQGTQVTVSS	low polyreactivity
QVQLVESGGGLVQAGGSLRLSCAASGGTFPYNAMGWYRQAPGKEREFVAAISYTGGSTYYADSVKGRFTISRDNAKNTVYLQMNSLKPEDTAVYYCATEHTRTASGYWGQGTQVTVSS	low polyreactivity
QVQLVESGGGLVQAGGSLRLSCAASGGTFPYYAMGWYRQAPGKERELVADISGTDGSTYYADSVKGRFTISRDNAKNTVYLQMNSLKPEDTAVYYCNAEPHWWYWDYDYWGQGTQVTVSS	high polyreactivity

Sequence	polyreactivity (PSR sort gate)
QVQLVESGGGLVQAGGSLRLSCAASGGTFQDYGMGWYRQAPGTERELVAAITWSGGSTYYADSVKGRFTISRDNAKNTVYLQMNSLKPEDTAVYYCAAVYADVYLYLTAYDYWGQGTQVTVSS	low polyreactivity
QVQLVESGGGLVQAGGSLRLSCAASGGTFRAYVMGWYRQAPGKERELVAAISRRGGSTYYADSVKGRFTISRDNAKNTVYLQMNSLKPEDTAVYYCNAPRLLLSYTPGLDRWPYGVYWGQGTQVTVSS	high polyreactivity
QVQLVESGGGLVQAGGSLRLSCAASGGTFRGYAMGWYRQAPGKERELVAAISRGTSTNYADSVKGRFTISRDNAKNTVYLHLNSLKPEDTAVYYCNAAKRGWYYDYYYWGQGTQVTVSS	high polyreactivity
QVQLVESGGGLVQAGGSLRLSCAASGGTFRGYAMGWYRQAPGKERELVAAITYSGGRTYYADSVKGRFTISRDNAKNTVYLQMNSLKPEDTAVYYCNAQSSGRLSYRYDYWGQGTQVTVSS	high polyreactivity
QVQLVESGGGLVQAGGSLRLSCAASGGTFRNYAMGWYRQAPGKERELVAGITSGSRTNYADSVKGRFTISRDNAKNTVYLQMNSLKPEDTAVYYCNARGNYVGRPYPVKHAYRSYYWGQGTQVTVSS	high polyreactivity
QVQLVESGGGLVQAGGSLRLSCAASGGTFRRYAMGWYRQAPGKEREFVAAITISGGNTYYADSVKGRFTISRDNAKNTVYLQMNSLKPEDTAVYYCAKDHIRKQPEGRRMDYWGQGTQVTVSS	low polyreactivity
QVQLVESGGGLVQAGGSLRLSCAASGGTFRRYAMGWYRQAPGKERELVAAISWTGGSTYYADSVKGRFTISRDNAKNTVYLQMNSLKPEDTAVYYCAAVGSSSSKGGYWGQGTQVTVSS	high polyreactivity
QVQLVESGGGLVQAGGSLRLSCAASGGTFRSYTMGWYRQAPGKERELVAAISWGGSTYYADSVKGRFTISRDNAKNTVYLQMNSLKPEDTAVYYCAADYWSFYRKRDYWGQGTQVTVSS	low polyreactivity
QVQLVESGGGLVQAGGSLRLSCAASGGTFRVYAMGWYIQAPGKERELVASISWTVGGTYADSVKGRFTISRDNAKNTVYLQMNSLKPEDTAVYYCAAGGEWVNPYFPSSLDYWGQGTQVTVSS	low polyreactivity
QVQLVESGGGLVQAGGSLRLSCAASGGTFRVYAMGWYRQAPGKERELVAAITGRGGSTYYADSVKGRFTISRDNAKNTVYLQMNSLKPEDTAVYYCAKDPVTTYYKYDYWGQGTQVTVSS	low polyreactivity
QVQLVESGGGLVQAGGSLRLSCAASGGTFRVYAMGWYRQAPGKERELVAAITGRGGSTYYADSVKGRFTISRDNAKNTVYLQMNSLKPEDTAVYYCNKESELVEYDYWGQGTQVTVSS	low polyreactivity
QVQLVESGGGLVQAGGSLRLSCAASGGTFRVYTMGWYRQAPGKERELVAAIILRGGGTYYADSVKGRFTISRDNAKNPVYLQMNSLNPEDTAVYYCNARSGNRYGPRYDYWGQGTQVTVSS	high polyreactivity
QVQLVESGGGLVQAGGSLRLSCAASGGTFSKNAMGWSRQAPGKERELVADIRSGGSTYYADSVKGRFTISRDNAKNTVYLQMNSLKPEDTAVYYCNADGDVNEYDYWGQGTQVTVSS	low polyreactivity
QVQLVESGGGLVQAGGSLRLSCAASGGTFSSNAMGWYRQAPGKERELVAAIRSTGRTYYADSVKGRFTISRDNAKNTVYLQMNSLKPEDTAVYYCAADLGRTPTGKIGFDYWGQGTQVTVSS	high polyreactivity
QVQLVESGGGLVQAGGSLRLSCAASGGTFSSYDMGWYRQAPGKERELVAAISWSGSSTDYADSVKGRFTISRDNAKNTVYLQMNSLKPEDTAVYYCNTDYWEITYSGVIWPEYDYWGQGTQVTVSS	low polyreactivity
QVQLVESGGGLVQAGGSLRLSCAASGGTFSYYAMGWYRQAPGKERELVAAISGNGDTTYYADSVKGRFTSSRDNAKNTVYLQMNSLKPEYTAVYYCNVYVSAGEEVEYWGQGTQVTVSS	low polyreactivity
QVQLVESGGGLVQAGGSLRLSCAASGGTFSYYTMGWYRPAPGKERELVAAISSGGSTNYADSVKGRFTISRDNAKNTVYLQMNSLKPEDTAVYYCAVRSGRRNYDRPAFGYWGQGTQVTVSS	high polyreactivity
QVQLVESGGGLVQAGGSLRLSCAASGGTFTDYAMGWYRQAPGKERELVAAISSVGSTNYADSVKGRFTISRDNAKNTVYLQMNSLKPEDTAVYYCAVDYGRAVQGDSITYDFNYWGQGTQVTVSS	low polyreactivity
QVQLVESGGGLVQAGGSLRLSCAASGGTFTNYAMGWYRQAPGKERELVAAITDSGATTYYADSVKGRFTISRDNAKNTVYLQMNSLKPEDTAVYYCNAALDLYTDFDYWGQGTQVTVSS	low polyreactivity
QVQLVESGGGLVQAGGSLRLSCAASGGTFVFYAMGWYRQAPGKERELVAAISSAGRTYYADSVKGRFTISRDNAKNTVYLQMNSLKPEDTAVYYCAAVSSQYDGRYYYWGQGTQVTVSS	high polyreactivity
QVQLVESGGGLVQAGGSLRLSCAASGGTFVGYAMGWYRQAPGKERELVASITRRGGNTYYADSVKGRFTISRDNAKNTVYLQMNSLKPEDTAVYYCDRRYYYQYRYDYWGQGTQVTVSS	high polyreactivity
